Measured values taken from paper PMC10462004.

Target: mouse PD-1 (programmed cell death-1), wild type, expressed on CHO cells (mouse) (UniProt Q02242)
Experiment: biomembrane force probe

Chain of UniProt Q02242 (Q02242 25-288): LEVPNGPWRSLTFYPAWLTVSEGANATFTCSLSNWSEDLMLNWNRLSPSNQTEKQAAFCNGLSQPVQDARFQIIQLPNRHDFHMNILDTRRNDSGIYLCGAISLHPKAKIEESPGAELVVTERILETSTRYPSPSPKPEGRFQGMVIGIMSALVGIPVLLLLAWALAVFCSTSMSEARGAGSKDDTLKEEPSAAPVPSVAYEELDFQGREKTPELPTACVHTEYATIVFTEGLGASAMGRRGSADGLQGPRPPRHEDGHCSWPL

Substance: mouse PD-L2 with C-terminal biotin (from UniProt Q9WUL5 20-221) (ligand)
- F1/2 (force at which 50% of the bonds rupture): 12.1 pN
